Results reported in doi:10.1101/2020.07.29.226720 (bioRxiv, 2020).

Target: the molecule itself
Test: SEC

B1: AthPEPCK1 Δ101 truncated mutant (enzyme, Arabidopsis thaliana, UniProt Q9T074 102-671, looked up)
chain: ESGPKVVRGDPAEKKTDGSTTPAYAHGQHHSIFSPATGAVSDSSLKFTHVLYNLSPAELYEQAIKYEKGSFITSNGALATLSGAKTGRAPRDKRVVRDATTEDELWWGKGSPNIEMDEHTFMVNRERAVDYLNSLEKVFVNDQYLNWDPENRIKVRIVSARAYHSLFMHNMCIRPTQEELESFGTPDFTIYNAGQFPCNRYTHYMTSSTSVDLNLARREMVILGTQYAGEMKKGLFSVMHYLMPKRRILSLHSGCNMGKDGDVALFFGLSGTGKTTLSTDHNRYLIGDDEHCWTETGVSNIEGGCYAKCVDLSREKEPDIWNAIKFGTVLENVVFDEHTREVDYSDKSVTENTRAAYPIEFIPNAKIPCVGPHPTNVILLACDAFGVLPPVSKLNLAQTMYHFISGYTALVAGTEDGIKEPTATFSACFGAAFIMLHPTKYAAMLAEKMKSQGATGWLVNTGWSGGSYGVGNRIKLAYTRKIIDAIHSGSLLKANYKKTEIFGFEIPTEIEGIPSEILDPVNSWSDKKAHKDTLVKLGGLFKKNFEVFANHKIGVDGKLTEEILAAGPIF
stoichiometry N: 6

B2: AthPEPCK1 Δ19 truncated mutant (enzyme, Arabidopsis thaliana, UniProt Q9T074 20-671, looked up)
chain: GPVMPKITTGAAKRGSGVCHDDSGPTVNATTIDELHSLQKKRSAPTTPINQNAAAAFAAVSEEERQKIQLQSISASLASLTRESGPKVVRGDPAEKKTDGSTTPAYAHGQHHSIFSPATGAVSDSSLKFTHVLYNLSPAELYEQAIKYEKGSFITSNGALATLSGAKTGRAPRDKRVVRDATTEDELWWGKGSPNIEMDEHTFMVNRERAVDYLNSLEKVFVNDQYLNWDPENRIKVRIVSARAYHSLFMHNMCIRPTQEELESFGTPDFTIYNAGQFPCNRYTHYMTSSTSVDLNLARREMVILGTQYAGEMKKGLFSVMHYLMPKRRILSLHSGCNMGKDGDVALFFGLSGTGKTTLSTDHNRYLIGDDEHCWTETGVSNIEGGCYAKCVDLSREKEPDIWNAIKFGTVLENVVFDEHTREVDYSDKSVTENTRAAYPIEFIPNAKIPCVGPHPTNVILLACDAFGVLPPVSKLNLAQTMYHFISGYTALVAGTEDGIKEPTATFSACFGAAFIMLHPTKYAAMLAEKMKSQGATGWLVNTGWSGGSYGVGNRIKLAYTRKIIDAIHSGSLLKANYKKTEIFGFEIPTEIEGIPSEILDPVNSWSDKKAHKDTLVKLGGLFKKNFEVFANHKIGVDGKLTEEILAAGPIF
stoichiometry N: 6
